Results as given in patent US8410310B2, “Trypsin-like serine protease inhibitors, and their preparation and use” (The Medicines Company (Leipzig) GmbH, priority 2006, dated 2013).
Like-named read-outs stand apart in the source and are kept apart here.

Legend:
[1] = cited from earlier work
plasmin = plasmin (Homo sapiens, UniProt P00747); test: Determination of inhibition constants for plasmin; assay type: biochemical; set-up: purchased Calbiochem; details: 25° C., substrate Chromozym PL, pH 8.0; read-out: Plasmin [Ki]
Chain of plasmin (P00747 581-810 limits assumed): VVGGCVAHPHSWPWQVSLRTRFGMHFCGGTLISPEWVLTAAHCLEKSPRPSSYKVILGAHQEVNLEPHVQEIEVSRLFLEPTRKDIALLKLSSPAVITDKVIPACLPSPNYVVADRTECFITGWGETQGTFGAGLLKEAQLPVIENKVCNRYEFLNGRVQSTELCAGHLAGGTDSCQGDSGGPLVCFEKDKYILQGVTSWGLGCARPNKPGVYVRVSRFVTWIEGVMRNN
Chain of plasmin (P00747 97-580 partner limits assumed): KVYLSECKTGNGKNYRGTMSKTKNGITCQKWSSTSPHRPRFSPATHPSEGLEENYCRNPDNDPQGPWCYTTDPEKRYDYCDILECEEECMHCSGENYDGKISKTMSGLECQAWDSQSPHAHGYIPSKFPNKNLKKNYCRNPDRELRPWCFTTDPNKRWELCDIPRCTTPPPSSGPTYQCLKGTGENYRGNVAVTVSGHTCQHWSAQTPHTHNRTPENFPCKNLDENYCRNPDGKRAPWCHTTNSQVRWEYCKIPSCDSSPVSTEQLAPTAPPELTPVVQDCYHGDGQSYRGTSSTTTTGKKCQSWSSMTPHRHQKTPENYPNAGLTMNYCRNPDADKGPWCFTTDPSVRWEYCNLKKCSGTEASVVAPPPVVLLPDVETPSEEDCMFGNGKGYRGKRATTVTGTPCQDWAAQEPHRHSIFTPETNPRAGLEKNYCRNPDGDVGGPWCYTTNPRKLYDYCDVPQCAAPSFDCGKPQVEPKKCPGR
Summary of the method: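 Chromogenic assays measured absorbance at 405 nm: zero-order reactions were stopped with acetic acid after 20 min, and pseudo-first-order rates were recorded kinetically at equilibrium. Ki was obtained by Dixon linear regression or by fitting to the competitive-inhibition rate equation, averaging at least two determinations.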

plasma kallikrein = plasma kallikrein (Homo sapiens, UniProt P03952); test: Inhibition constants against purified human serine proteases: plasma kallikrein; assay type: biochemical; set-up: purchased Enzyme Research Lab. / Enzyme Research Laboratories
Chain of plasma kallikrein (P03952 391-638 limits assumed): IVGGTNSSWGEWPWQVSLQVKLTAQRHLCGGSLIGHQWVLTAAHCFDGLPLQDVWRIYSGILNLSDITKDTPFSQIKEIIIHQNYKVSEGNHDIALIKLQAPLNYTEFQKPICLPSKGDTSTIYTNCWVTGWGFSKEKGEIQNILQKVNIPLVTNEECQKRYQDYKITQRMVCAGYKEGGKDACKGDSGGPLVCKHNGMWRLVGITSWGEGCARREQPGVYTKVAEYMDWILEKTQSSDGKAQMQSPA
Chain of plasma kallikrein (P03952 20-390 partner limits assumed): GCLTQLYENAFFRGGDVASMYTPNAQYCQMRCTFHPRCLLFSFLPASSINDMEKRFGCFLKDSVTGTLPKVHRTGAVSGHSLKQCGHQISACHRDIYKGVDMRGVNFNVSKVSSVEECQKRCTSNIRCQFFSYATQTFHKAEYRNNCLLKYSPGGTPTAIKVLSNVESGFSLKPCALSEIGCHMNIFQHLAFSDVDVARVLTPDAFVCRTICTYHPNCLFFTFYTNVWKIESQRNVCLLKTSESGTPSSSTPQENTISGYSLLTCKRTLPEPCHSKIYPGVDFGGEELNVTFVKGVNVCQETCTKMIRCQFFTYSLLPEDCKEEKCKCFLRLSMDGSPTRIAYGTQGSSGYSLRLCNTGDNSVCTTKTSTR
Excerpt: Aprotinin and tranexamic acid were purchased from SIGMA (Schnelldorf, Germany). Human factor Xa, factor XIa, factor XIIa, thrombin, and plasma kallikrein were purchased from Enzyme Research Laboratories, and human plasmin from Chromogenix (both via Haemochrom, Essen, Germany). Various synthetic peptide chromogenic substrates used for determination of inhibition constants were obtained from Pentapharm (Basel, Switzerland), Roche (Mannheim, Germany), and Chromogenix: Chromozyme PL for plasmin, S2302 for plasma kallikrein, Pefachrome FXa for factor Xa, Chromozym XII for FXIIa, Pefachrom tPA for thrombin, and Pefachrome PCa for factor XIa. […]
Inhibition of purified human serine proteases by Compound No. 3 and aprotinin was studied using the established methods described herein in Example 3 (i.e., Stürzebecher et al., 1997). […] Steady-state velocities of substrate conversion were obtained from progress curves generated by continuous monitoring of the absorbance at 405 nm with a microplate reader (Multiskan Ascent, Thermo Electron Corporation, Dreieich, Germany). […] Inhibition constants (Ki) were calculated from non-linear fits of individual data sets to the Michaelis-Menten equation for competitive inhibitors using an enzyme kinetic analysis software (SIGMA Plot® 9.0 Enzyme Kinetics Module, SSI, San Jose, Calif.). […]

Compound	risk of myocardial infarction and apoplectic stroke ([1]; by comparison with the control groups)	number of cases of kidney damage, making dialysis necessary ([1]; comparison with ε-aminocaproic acid or tranexamic acid (Mangano et al., 2006))	risk of an anaphylactic shock ([1]; first administration) [%]	risk of an anaphylactic shock ([1]; repeated administration within 200 days)	Ki (plasmin) [pM]	Ki (plasma kallikrein; 50 mM Tris-HCl pH 8.0, 154 mM NaCl, S2302) [nM]	stronger inhibition of plasma kallikrein than aprotinin (plasma kallikrein; versus aprotinin) [fold]
aprotinin	increased	doubling	< 0.1	4-5%			
N=C(N)c1ccc(CNC(=O)[C@H](Cc2cccc(CN)c2)NC(=O)[C@@H](CCCc2ccccc2)NS(=O)(=O)Cc2cccc(C(=O)O)c2)cc1 [compound 3, 3-HOOC-Bzls-d-Ppg-Phe(3-Ame)-4-Amba×2 acetate]					< 10000	0.019 ± 0.003	2000
